In this experiment the target is T1, KDM5A1-797 (Homo sapiens, UniProt P29375).
T1 construct: KDM5A1-797 was cloned into a pFASTBAC HTA vector; His (N, cleaved yes); made in house; host or cells: Sf21 insect cells (baculovirus)
T1 sequence (P29375 1-797): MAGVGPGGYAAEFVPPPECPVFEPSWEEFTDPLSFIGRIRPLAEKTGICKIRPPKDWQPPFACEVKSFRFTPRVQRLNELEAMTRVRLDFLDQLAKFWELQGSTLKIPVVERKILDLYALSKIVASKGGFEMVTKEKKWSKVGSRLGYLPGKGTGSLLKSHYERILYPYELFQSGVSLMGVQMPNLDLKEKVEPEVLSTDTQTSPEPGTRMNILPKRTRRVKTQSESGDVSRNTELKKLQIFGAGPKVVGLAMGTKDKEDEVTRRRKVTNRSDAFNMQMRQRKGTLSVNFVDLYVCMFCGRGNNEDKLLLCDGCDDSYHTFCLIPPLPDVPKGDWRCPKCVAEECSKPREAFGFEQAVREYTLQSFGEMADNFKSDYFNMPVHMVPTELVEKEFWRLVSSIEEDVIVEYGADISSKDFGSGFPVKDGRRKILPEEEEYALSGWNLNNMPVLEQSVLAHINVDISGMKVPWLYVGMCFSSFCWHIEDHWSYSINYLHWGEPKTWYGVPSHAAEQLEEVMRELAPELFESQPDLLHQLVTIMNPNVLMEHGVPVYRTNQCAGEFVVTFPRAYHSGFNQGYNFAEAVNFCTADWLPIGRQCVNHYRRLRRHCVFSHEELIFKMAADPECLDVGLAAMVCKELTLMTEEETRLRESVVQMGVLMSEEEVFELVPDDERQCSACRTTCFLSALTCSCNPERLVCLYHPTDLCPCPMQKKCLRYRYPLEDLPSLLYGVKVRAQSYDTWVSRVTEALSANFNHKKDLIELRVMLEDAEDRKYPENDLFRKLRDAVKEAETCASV
Nature of the experiment: Lysine crosslinking MS. The settings on record: H3 effector peptide 40 µM, BS^3-H12/D12, 1 h, 4 °C. The method, then: Hundred micrograms of KDM5A1-797 was crosslinked with 1 mM BS^3-H12 for 1 h at 4 °C. […] After quenching with 50 mM Tris-base, the light and heavy crosslinked reaction mixtures were combined and precipitated with ice cold acetone. Crosslinked proteins were pelleted by spinning at 21,000 × g, the supernatant was removed, and the pellet was washed once with cold acetone. The precipitate was brought up in 8 M Urea, 10 mM TCEP, heated at 56 °C for 20 min, and then alkylated with 15 mM iodoacetamide (45 min at room temperature). The sample was diluted to 2 M Urea and digested […] with 0.8 µg trypsin for 4 h at 37 °C. A second aliquot of trypsin was then added and digestion was allowed to proceed overnight. […]
LC-MS analysis was performed with a Q-Exactive Plus mass spectrometer (Thermo Scientific) coupled with a nanoelectrospray ion source (Easy-Spray, Thermo) and NanoAcquity UPLC system (Waters). […] Precursor MS scans were measured in the Orbitrap scanning from 350 to 1500 m/z (mass resolution: 70,000). The ten most intense triply charged or higher precursors were isolated in the quadrupole (isolation window: 4 m/z), dissociated by HCD (normalized collision energy: 23), and the product ion spectra were measured in the Orbitrap (mass resolution: 17,500). […]
For quantitative analysis, precursor ion filtering in Skyline 4.1 was used to extract light:heavy crosslinked precursor ion signals. […]

Take “H3: unmodified N-terminal H3 tail 10mer peptide (H3 Ala1-Ser10), PHD1 effector ligand”: the “changes in lysine crosslinks” value is “minor changes in crosslink occupancy and distribution”.
